From patent publication US20190119389A1 (POTENZA THERAPEUTICS, published 2019)

B1: MAB15 Fab (Fab, V domains shown)
VH: QVQLQQWGAGLLKPSETLSLTCAVYGGSFVKYYWSWIRQPPGKGLEWIGDIWHSGMTNYNPSLKSRVTISVDTSKNQFSLKLSSVTAADTAVYYCARGPGYDSSGYSRRFDPWGQGTLVTVSS
VL: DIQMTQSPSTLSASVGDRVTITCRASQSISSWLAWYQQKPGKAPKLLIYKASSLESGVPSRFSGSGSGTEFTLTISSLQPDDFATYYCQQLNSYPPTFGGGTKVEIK
B2: MAB6 (antibody, V domains shown)
VH: QVQLVQSGAKVKKPGASVKVSCKASGYTFTSYYMHWVRQVPGQGLEWMGIINPQGGDTSYAQKFQGRVTMTRDTSTSTVYMELSSLRSEDTAVYYCARDRGMYYASGFNPWGQGTLVTVSS
VL: EIVMTQSPGTLSLSPGERATLSCRASQSVSSSYLAWYQQKPGQAPRLLIYGASNRATGIPDRFSGSGSGTDFTLTISRLEPEDFAVYYCQQLSSFPITFGGGTKVEIK
B3: MAB5 Fab (Fab, V domains shown)
VH: QVQLVQSGAEVKKPGASVKVSCKASGYTFTSYYMHWVRQAPGQGLEWMGIINPQGGDTSYAQKFQGRVTMTRDTSTSTVYMELSSLRSEDTAVYYCARDRGMYYASGFGPWGQGTLVTVSS
VL: EIVMTQSPGTLSLSPGERATLSCRASQSVSSSYLAWYQQKPGQAPRLLIYGASNRATGIPDRFSGSGSGTDFTLTISRLEPEDFAVYYCQQLSSFPITFGGGTKVEIK
B4: MAB6 Fab (Fab, V domains shown)
VH: QVQLVQSGAKVKKPGASVKVSCKASGYTFTSYYMHWVRQVPGQGLEWMGIINPQGGDTSYAQKFQGRVTMTRDTSTSTVYMELSSLRSEDTAVYYCARDRGMYYASGFNPWGQGTLVTVSS
VL: EIVMTQSPGTLSLSPGERATLSCRASQSVSSSYLAWYQQKPGQAPRLLIYGASNRATGIPDRFSGSGSGTDFTLTISRLEPEDFAVYYCQQLSSFPITFGGGTKVEIK
B5: MAB7 (antibody, V domains shown)
VH: EVQLVESGGGLVQPGGSLRLSCAASGFTFSSYWMEWVRQAPGKGLEWVARIKRDGSEKYYVDSVKGRFTISRDNAKNSLYLQMNSLRAEDTAVYYCARDQGYKTPTDFDLWGRGTLVTVSS
VL: DIQMTQSPSSLSASVGDRVTITCQASQDITNYLNWYQQKPGKAPKLLIYDASNLETGVPSRFSGSGSGTDFTFTISSLQPEDIATYYCQQSDVLPITFGGGTKVEIK
B6: MAB2 IgG4 S228P (antibody, V domains shown)
VH: QVQLVQSGAEVKKPGASVKVSCKASGYTFRSYYMLWVRQAPGQGLEWMGIIDPSDGSTSYAQKFQGRVTMTRDASTSTVYMELSSLRSEDTAVYYCARGARRITGYGMDVWGQGTTVIVSS
VL: DIQMTQSPSSVSASVGDRVTITCRASQGISSWLAWYQQKPGKAPKLLIYAASNLQSGVPSRFSGSGSGTDFTLTISSLQPEDFATYYCQQASVFPFTFGGGTKVEIKR
B7: MAB1 Fab (Fab, V domains shown)
VH: QVQLVQSGAGVKKPGASVKVSCKASGYTFRSYYMLWVRQAPGQGLEWMGIIDPSDGSTSYAQKFQGRVTMTRDTPTSTVYMELSSLRSEDTAVYYCARGARRITGYGMDVWGQGTTVTVSS
VL: DIQMTQSPSSVSASVGDRVTITCRASQGISSWLAWYQQKPGKAPKLLIYAASNLQSGVPSRFSGSGSGTDFTLTISSLQPEDFATYYCQQASVFPFTFGGGTKVEIK
B8: MAB3 Fab (Fab, V domains shown)
VH: QAQLVQSGAEVKKPGASVKVSCKASGYTFSRYYMHWVRQAPGQGLEWMGIINPLGGSTLYAQKFQGRVTMTRDTSTSTVYMELSSLRSEDTAVYYCARDLGYYGSGMHAWGQGTLVTVSS
VL: DIQMTQSPSSVSASVGDRVTITCRASQGISRWLAWYQQKPGKAPKLLIYAASSLQSGVPSRFSGSGSGTDFTLTISSLQPEDFATYYCQQANLLPFTFGGGTKVEIK
B9: MAB13 Fab (Fab, V domains shown)
VH: QVQLQQWGAGLLKPSETLSLTCAVYGGSFRGYYWEWIRQPPGKGLEWIGEISHSGSTNYNPSLKSRVTISVDTSKNQFSLKLSSVTAADTAVYYCARARPYREPYGMDVWGQGTTVTVSS
VL: DIQLTQSPSSVSASVGDRVTITCRASQDISSWLAWYQQKPGKAPKLLIYAASSLQSGVPSRFSGSGSGTDFTLTISSLQPEDFATYYCQQELAFPRTFGGGTKVEIK
B10: MAB10 (antibody, V domains shown)
VH: EVQLLESGGGLVQPGGSLRLSCAASGFTFSSVAMVWVRQAPGKGLEWVSAISGSGGATYYADSVKGRFTISRDNSKNTLYLQMNSLRAEDTAVYYCAKDPGYDSSRYYYSNYGMDVWGQGTTVTVSS
VL: DIQMTQSPSSLSASVGDRVTITCRASQSISSYLNWYQQKPGKAPKLLIYGASSLQSGVPSRFSGSGSGTDFTLTISSLQPEDFATYYCQQTYSLYTFGGGTKVEIK
B11: MAB10 Fab (Fab, V domains shown)
VH: EVQLLESGGGLVQPGGSLRLSCAASGFTFSSVAMVWVRQAPGKGLEWVSAISGSGGATYYADSVKGRFTISRDNSKNTLYLQMNSLRAEDTAVYYCAKDPGYDSSRYYYSNYGMDVWGQGTTVTVSS
VL: DIQMTQSPSSLSASVGDRVTITCRASQSISSYLNWYQQKPGKAPKLLIYGASSLQSGVPSRFSGSGSGTDFTLTISSLQPEDFATYYCQQTYSLYTFGGGTKVEIK
B12: MAB8 (antibody, V domains shown)
VH: EVQLLESGGGLVQPGGSLRLSCAASGFTFASYAMVWVRQAPGKGLEWVSIISGSGGSTYYADSVKGRFTISRDNSKNTLYLQMNSLRAEDTAVYYCAKDPGYDSSRYYYSNYGMDVWGQGTTVTVSS
VL: DIQMTQSPSSLSASVGDRVTITCRASQSISSYLNWYQQKPGKAPKLLIYGASSLQSGVPSRFSGSGSGTDFTLTISSLQPEDFATYYCQQTYSLYTFGGGTKVEIK
B13: MAB9 (antibody, V domains shown)
VH: EVQLLESGGGLVQPGGSLRLSCAASGFTFKSYAMVWVRQAPGKGLEWVSIISGSGGATYYADSVKGRFTISRDNSKNTLYLQMNSLRAEDTAVYYCAKDPGYDSSRYYYSNYGMDVWGQGTTVTVSS
VL: DIQMTQSPSSLSASVGDRVTITCRASQSISSYLNWYQQKPGKAPKLLIYGASSLQSGVPSRFSGSGSGTDFTLTISSLQPEDFATYYCQQTYSLYTFGGGTKVEIK
B14: MAB11 (antibody, V domains shown)
VH: EVQLLESGGGLVQPGGSLRLSCAASGFTFSSVAMVWVRQAPGKGLEWVSAISGSGGATYYADSVEGRFTISRDNSKNTLYLQMSSLRAEDTAVYYCAKDPGYDSSRYYYSNYGMDVWGQGTTVTVSS
VL: DIQMTQSPSSLSASVGDRVTITCRASQSISSYLNWYQQKPGKAPKLLIYGASSLQSGVPSRFSGSGSGTDFTLTISSLQPEDFATYYCQQTYSLYTFGGGTKVEIK

Experiments:
[1] = biological target: T1, Human NRP-1 His (human, UniProt O14786 22-856); experiment: MSD-SET solution equilibrium titration, Fab
T1 construct: Recombinant monomeric protein; Biotinylated in the MSD-SET assay; also called hNRP-1; not shown: His tag

[2] = biological target: T1, Human NRP-1 His; experiment: BLI ForteBio, IgG1 N297A on AHQ sensor, 100 nM monomeric antigen, 1:1 fit
Target sequence in this assay (O14786 22-856 V179A limits assumed): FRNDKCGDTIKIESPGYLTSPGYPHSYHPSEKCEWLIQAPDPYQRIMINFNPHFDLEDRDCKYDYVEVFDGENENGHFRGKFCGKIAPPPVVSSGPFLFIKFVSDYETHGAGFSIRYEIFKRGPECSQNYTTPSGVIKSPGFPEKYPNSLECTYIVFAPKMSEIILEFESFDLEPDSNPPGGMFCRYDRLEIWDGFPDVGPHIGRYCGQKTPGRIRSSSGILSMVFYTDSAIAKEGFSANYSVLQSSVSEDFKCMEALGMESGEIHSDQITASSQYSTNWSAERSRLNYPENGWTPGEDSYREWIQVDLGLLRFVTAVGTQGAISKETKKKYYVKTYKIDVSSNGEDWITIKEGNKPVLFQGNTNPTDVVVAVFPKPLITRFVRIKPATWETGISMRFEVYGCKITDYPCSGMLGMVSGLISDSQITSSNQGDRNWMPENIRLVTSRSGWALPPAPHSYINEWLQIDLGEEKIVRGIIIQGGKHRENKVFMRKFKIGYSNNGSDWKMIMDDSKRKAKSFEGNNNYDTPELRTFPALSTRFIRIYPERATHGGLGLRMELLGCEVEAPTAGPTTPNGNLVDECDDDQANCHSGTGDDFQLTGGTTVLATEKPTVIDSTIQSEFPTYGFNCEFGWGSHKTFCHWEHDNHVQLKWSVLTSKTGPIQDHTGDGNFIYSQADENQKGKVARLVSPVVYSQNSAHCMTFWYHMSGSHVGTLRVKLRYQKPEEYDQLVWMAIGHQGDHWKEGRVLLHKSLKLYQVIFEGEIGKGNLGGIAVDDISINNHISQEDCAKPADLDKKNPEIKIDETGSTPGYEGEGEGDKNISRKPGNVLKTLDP

[3] = biological target: T2, Cyno NRP-1 His (cynomolgus monkey, UniProt O14786 22-856 (human entry), limits assumed); experiment: as above
T2 construct: Recombinant monomeric protein; also called cynomolgus monkey NRP-1-His; cNRP-1; not shown: His tag
T2 chain: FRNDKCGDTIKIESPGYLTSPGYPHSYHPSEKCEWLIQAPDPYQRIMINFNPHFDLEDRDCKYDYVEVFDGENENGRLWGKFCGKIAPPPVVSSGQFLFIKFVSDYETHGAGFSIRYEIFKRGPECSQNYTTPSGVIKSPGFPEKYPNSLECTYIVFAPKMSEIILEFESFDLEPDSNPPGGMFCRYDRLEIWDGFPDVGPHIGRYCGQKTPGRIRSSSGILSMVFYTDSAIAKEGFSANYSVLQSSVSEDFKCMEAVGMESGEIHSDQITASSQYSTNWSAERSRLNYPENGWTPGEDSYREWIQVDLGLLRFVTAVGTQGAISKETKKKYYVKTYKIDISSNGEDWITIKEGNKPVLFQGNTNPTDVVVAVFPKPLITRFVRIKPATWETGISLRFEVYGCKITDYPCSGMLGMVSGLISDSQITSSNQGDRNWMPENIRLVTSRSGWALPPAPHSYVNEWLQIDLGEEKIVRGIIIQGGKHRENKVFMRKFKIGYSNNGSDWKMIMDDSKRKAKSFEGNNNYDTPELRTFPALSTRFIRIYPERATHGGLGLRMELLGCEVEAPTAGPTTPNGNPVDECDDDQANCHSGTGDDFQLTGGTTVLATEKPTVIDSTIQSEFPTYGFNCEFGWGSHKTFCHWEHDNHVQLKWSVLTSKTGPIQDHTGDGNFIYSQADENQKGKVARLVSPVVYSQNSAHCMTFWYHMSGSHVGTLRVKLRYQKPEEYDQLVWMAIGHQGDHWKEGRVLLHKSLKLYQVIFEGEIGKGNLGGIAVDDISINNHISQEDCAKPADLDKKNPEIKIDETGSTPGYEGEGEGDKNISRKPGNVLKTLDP

[4] = biological target: T3, Mouse NRP-1 His (mouse, UniProt P97333 22-856); experiment: as above
T3 construct: Recombinant monomeric protein; also called mNRP-1; not shown: His tag
T3 sequence (P97333 22-856 limits assumed): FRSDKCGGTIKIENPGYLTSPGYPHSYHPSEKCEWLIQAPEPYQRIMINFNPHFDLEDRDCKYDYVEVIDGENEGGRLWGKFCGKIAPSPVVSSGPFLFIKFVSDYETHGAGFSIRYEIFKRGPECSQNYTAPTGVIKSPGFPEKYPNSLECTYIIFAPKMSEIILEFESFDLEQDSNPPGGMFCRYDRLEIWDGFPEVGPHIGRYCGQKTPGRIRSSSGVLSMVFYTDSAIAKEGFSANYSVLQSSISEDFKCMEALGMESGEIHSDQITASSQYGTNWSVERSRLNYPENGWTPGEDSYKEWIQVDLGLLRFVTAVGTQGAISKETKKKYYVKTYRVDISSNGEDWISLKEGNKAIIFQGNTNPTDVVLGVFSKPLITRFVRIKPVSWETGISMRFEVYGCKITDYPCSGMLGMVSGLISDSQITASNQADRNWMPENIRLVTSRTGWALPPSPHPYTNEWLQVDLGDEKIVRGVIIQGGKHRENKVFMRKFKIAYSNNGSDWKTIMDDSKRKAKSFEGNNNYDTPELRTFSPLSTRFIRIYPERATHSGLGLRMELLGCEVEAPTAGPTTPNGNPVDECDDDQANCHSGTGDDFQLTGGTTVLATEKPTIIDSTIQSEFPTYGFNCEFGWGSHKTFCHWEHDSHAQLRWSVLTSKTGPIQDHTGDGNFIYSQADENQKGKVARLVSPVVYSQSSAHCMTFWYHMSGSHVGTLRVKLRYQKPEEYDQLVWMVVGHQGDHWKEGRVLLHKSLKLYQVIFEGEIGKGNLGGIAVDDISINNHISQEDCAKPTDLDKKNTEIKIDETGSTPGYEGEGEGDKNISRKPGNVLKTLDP

[5] = biological target: T4, recombinant human NRP-1 (human, UniProt O14786 22-856, limits assumed); experiment: blocking ELISA: human NRP-1 coated, VEGFA added with IgG1 antibody; competitor VEGFA
T4 construct: also called biotinylated human NRP-1
T4 sequence (O14786 22-856 V179A limits assumed): as the sequence (O14786 22-856 V179A limits assumed) above

[6] = biological target: T4, recombinant human NRP-1; experiment: blocking ELISA: SEMA3A coated, biotinylated human NRP-1 preincubated with IgG1 antibody; competitor SEMA3A
[7] = biological target: T1, Human NRP-1 His; experiment: BLI Octet QKe, IgG4 S228P on AHC sensor, multi-concentration monomeric antigen, global 1:1 fit
Target sequence in this assay (O14786 22-856 V179A limits assumed): as above

[8] = biological target: T2, Cyno NRP-1 His; experiment: as above
[9] = biological target: T3, Mouse NRP-1 His; experiment: as above
[10] = biological target: T4, recombinant human NRP-1; experiment: blocking ELISA, average of n=2: SEMA3A coated, biotinylated human NRP-1 preincubated with IgG4 antibody; competitor SEMA3A

Row | Kd [1] [nM] | Kd [2] [nM] | Kd [3] [nM] | Kd [4] [nM] | IC50 [5] [nM] | IC50 [6] [nM] | further results | Binder
1 | 0.18 |  |  |  |  |  |  | B1
2 |  | 4.72 | 5.54 | 6.98 | 7.4 | 1.8 |  | B2
3 | 0.28 |  |  |  |  |  |  | B3
4 | 0.45 |  |  |  |  |  |  | B4
5 |  | 11.2 | 10.9 | 14.7 | 6.9 | 1.7 |  | B5
6 |  |  |  |  |  |  | Kd [7]: 2.4 nM; Kd [8]: 4.5 nM; Kd [9]: 5.1 nM; IC50 [10]: 2.6 nM | B6
7 | 0.32 |  |  |  |  |  |  | B7
8 | 0.06 |  |  |  |  |  |  | B8
9 | 0.54 |  |  |  |  |  |  | B9
10 |  | 0.868 | 0.866 | 0.746 | 6.7 | 1.5 |  | B10
11 | 0.064 |  |  |  |  |  |  | B11
12 |  | 0.613 | 0.642 | 0.552 | 7.3 | 2 |  | B12
13 |  | 0.645 | 0.643 | 0.566 | 6.5 | 1.8 |  | B13
14 |  | 0.485 | 0.48 | 0.446 | 5.9 | 0.8 |  | B14
